Laboratory results: the Human Domainome abundance scans (Beltran et al. 2025)
± gives the uncertainty stated by the source.

B1: POU domain, class 4, transcription factor 3, residues 185 to 256; numbered along this chain, Q15319 (parent)
chain: RELEAFAERFKQRRIKLGVTQADVGAALANLKIPGVGSLSQSTICRFESLTLSHNNMIALKPVLQAWLEEAE

Variants of: B1
Experiment: abundance fitness (aPCA) (normalised: wild type 0, dead -1); higher = more abundant; growth selection in yeast, the domain comes from the species named
Details: Homo sapiens

Q: With RELEAFAERFKQRRIKLGVTQADVGAARANLKIPGVGSLSQSTICRFESLTLSHNNMIALKPVLQAWLEEAE [L28R] as the variant, how does the abundance fitness read?
A: The abundance fitness was -1.06 ± 0.47.

Q: With RELEAFAERFKQRRIKLGVTQADVGAYLANLKIPGVGSLSQSTICRFESLTLSHNNMIALKPVLQAWLEEAE [A27Y] as the variant, how does the abundance fitness read?
A: The abundance fitness was -0.084 ± 0.088.

Q: With RELEAFAERFKQRRIKLGVTQADVGAGLANLKIPGVGSLSQSTICRFESLTLSHNNMIALKPVLQAWLEEAE [A27G] as the variant, how does the abundance fitness read?
A: Its abundance fitness is -0.196 ± 0.046.

Q: Which abundance fitness does the source give for RELEAFAERFKQRRIKLGVTQADVGAVLANLKIPGVGSLSQSTICRFESLTLSHNNMIALKPVLQAWLEEAE [A27V] here?
A: Its abundance fitness is -0.139 ± 0.047.

Q: For RELEAFAERFKQRRIKLGVTQADVGATLANLKIPGVGSLSQSTICRFESLTLSHNNMIALKPVLQAWLEEAE [A27T], which abundance fitness is on record?
A: The abundance fitness was 0.205 ± 0.26.

Q: Which abundance fitness does the source give for RELEAFAERFKQRRIKLGVTQADVGAWLANLKIPGVGSLSQSTICRFESLTLSHNNMIALKPVLQAWLEEAE [A27W] here?
A: Its abundance fitness is -0.202 ± 0.059.

Q: For RELEAFAERFKQRRIKLGVTQADVGADLANLKIPGVGSLSQSTICRFESLTLSHNNMIALKPVLQAWLEEAE [A27D], which abundance fitness is on record?
A: The abundance fitness was -0.431 ± 0.23.

Q: For RELEAFAERFKQRRIKLGVTQADVGARLANLKIPGVGSLSQSTICRFESLTLSHNNMIALKPVLQAWLEEAE [A27R], which abundance fitness is on record?
A: Its abundance fitness is -0.384 ± 0.14.

Q: With RELEAFAERFKQRRIKLGVTQADVGAFLANLKIPGVGSLSQSTICRFESLTLSHNNMIALKPVLQAWLEEAE [A27F] as the variant, how does the abundance fitness read?
A: The abundance fitness was -0.283 ± 0.11.

Q: Which abundance fitness does the source give for RELEAFAERFKQRRIKLGVTQADVGACLANLKIPGVGSLSQSTICRFESLTLSHNNMIALKPVLQAWLEEAE [A27C] here?
A: Its abundance fitness is -0.266 ± 0.076.

Q: For RELEAFAERFKQRRIKLGVTQADVGAELANLKIPGVGSLSQSTICRFESLTLSHNNMIALKPVLQAWLEEAE [A27E], which abundance fitness is on record?
A: Its abundance fitness is -0.123 ± 0.081.

Q: For RELEAFAERFKQRRIKLGVTQADVGAMLANLKIPGVGSLSQSTICRFESLTLSHNNMIALKPVLQAWLEEAE [A27M], which abundance fitness is on record?
A: The abundance fitness was -0.176 ± 0.11.

Q: With RELEAFAERFKQRRIKLGVTQADVGAKLANLKIPGVGSLSQSTICRFESLTLSHNNMIALKPVLQAWLEEAE [A27K] as the variant, how does the abundance fitness read?
A: The abundance fitness was -0.126 ± 0.11.

Q: With RELEAFAERFKQRRIKLGVTQADVGALLANLKIPGVGSLSQSTICRFESLTLSHNNMIALKPVLQAWLEEAE [A27L] as the variant, how does the abundance fitness read?
A: Its abundance fitness is -0.233 ± 0.064.

Q: With RELEAFAERFKQRRIKLGVTQADVGQALANLKIPGVGSLSQSTICRFESLTLSHNNMIALKPVLQAWLEEAE [A26Q] as the variant, how does the abundance fitness read?
A: Its abundance fitness is -0.029 ± 0.045.

Q: Which abundance fitness does the source give for RELEAFAERFKQRRIKLGVTQADVGSALANLKIPGVGSLSQSTICRFESLTLSHNNMIALKPVLQAWLEEAE [A26S] here?
A: Its abundance fitness is -0.012 ± 0.025.

Q: For RELEAFAERFKQRRIKLGVTQADVGRALANLKIPGVGSLSQSTICRFESLTLSHNNMIALKPVLQAWLEEAE [A26R], which abundance fitness is on record?
A: Its abundance fitness is -0.017 ± 0.028.

Q: For RELEAFAERFKQRRIKLGVTQADVGYALANLKIPGVGSLSQSTICRFESLTLSHNNMIALKPVLQAWLEEAE [A26Y], which abundance fitness is on record?
A: The abundance fitness was -0.144 ± 0.044.

Q: Which abundance fitness does the source give for RELEAFAERFKQRRIKLGVTQADVGVALANLKIPGVGSLSQSTICRFESLTLSHNNMIALKPVLQAWLEEAE [A26V] here?
A: The abundance fitness was -0.069 ± 0.026.

Q: Which abundance fitness does the source give for RELEAFAERFKQRRIKLGVTQADVGWALANLKIPGVGSLSQSTICRFESLTLSHNNMIALKPVLQAWLEEAE [A26W] here?
A: The abundance fitness was -0.152 ± 0.036.

Q: With RELEAFAERFKQRRIKLGVTQADVGPALANLKIPGVGSLSQSTICRFESLTLSHNNMIALKPVLQAWLEEAE [A26P] as the variant, how does the abundance fitness read?
A: Its abundance fitness is -0.472 ± 0.053.

Q: With RELEAFAERFKQRRIKLGVTQADVGTALANLKIPGVGSLSQSTICRFESLTLSHNNMIALKPVLQAWLEEAE [A26T] as the variant, how does the abundance fitness read?
A: Its abundance fitness is -0.108 ± 0.039.

Q: For RELEAFAERFKQRRIKLGVTQADVGAALASLKIPGVGSLSQSTICRFESLTLSHNNMIALKPVLQAWLEEAE [N30S], which abundance fitness is on record?
A: Its abundance fitness is -0.186 ± 0.098.

Q: Which abundance fitness does the source give for RELEAFAERFKQRRIKLGVTQADVGAALALLKIPGVGSLSQSTICRFESLTLSHNNMIALKPVLQAWLEEAE [N30L] here?
A: Its abundance fitness is -0.279 ± 0.049.

Q: Which abundance fitness does the source give for RELEAFAERFKQRRIKLGVTQADVGAALAVLKIPGVGSLSQSTICRFESLTLSHNNMIALKPVLQAWLEEAE [N30V] here?
A: Its abundance fitness is -0.177 ± 0.046.

Q: Which abundance fitness does the source give for RELEAFAERFKQRRIKLGVTQADVGAALAMLKIPGVGSLSQSTICRFESLTLSHNNMIALKPVLQAWLEEAE [N30M] here?
A: Its abundance fitness is -0.239 ± 0.12.

Q: For RELEAFAERFKQRRIKLGVTQADVGAALAELKIPGVGSLSQSTICRFESLTLSHNNMIALKPVLQAWLEEAE [N30E], which abundance fitness is on record?
A: The abundance fitness was -0.083 ± 0.091.

Q: For RELEAFAERFKQRRIKLGVTQADVGAALAILKIPGVGSLSQSTICRFESLTLSHNNMIALKPVLQAWLEEAE [N30I], which abundance fitness is on record?
A: Its abundance fitness is -0.361 ± 0.15.

Q: For RELEAFAERFKQRRIKLGVTQADVGAALAHLKIPGVGSLSQSTICRFESLTLSHNNMIALKPVLQAWLEEAE [N30H], which abundance fitness is on record?
A: Its abundance fitness is -0.051 ± 0.16.

Q: Which abundance fitness does the source give for RELEAFAERFKQRRIKLGVTQADVGAALACLKIPGVGSLSQSTICRFESLTLSHNNMIALKPVLQAWLEEAE [N30C] here?
A: The abundance fitness was -0.261 ± 0.15.

Q: Which abundance fitness does the source give for RELEAFAERFKQRRIKLGVTQADVGAALAGLKIPGVGSLSQSTICRFESLTLSHNNMIALKPVLQAWLEEAE [N30G] here?
A: Its abundance fitness is -0.058 ± 0.12.

Q: For RELEAFAERFKQRRIKLGVTQADVGAALAWLKIPGVGSLSQSTICRFESLTLSHNNMIALKPVLQAWLEEAE [N30W], which abundance fitness is on record?
A: Its abundance fitness is 0.007 ± 0.19.

Q: With RELEAFAERFKQRRIKLGVTQADVGAALATLKIPGVGSLSQSTICRFESLTLSHNNMIALKPVLQAWLEEAE [N30T] as the variant, how does the abundance fitness read?
A: Its abundance fitness is -0.005 ± 0.11.

Q: For RELEAFAERFKQRRIKLGVTQADVGAALAQLKIPGVGSLSQSTICRFESLTLSHNNMIALKPVLQAWLEEAE [N30Q], which abundance fitness is on record?
A: The abundance fitness was -0.022 ± 0.099.

Q: For RELEAFAERFKQRRIKLGVTQADVGAALADLKIPGVGSLSQSTICRFESLTLSHNNMIALKPVLQAWLEEAE [N30D], which abundance fitness is on record?
A: Its abundance fitness is -0.184 ± 0.5.

Q: Which abundance fitness does the source give for RELEAFAERFKQRRIKLGVTQADVGAALARLKIPGVGSLSQSTICRFESLTLSHNNMIALKPVLQAWLEEAE [N30R] here?
A: Its abundance fitness is -0.148 ± 0.078.

Q: With RELEAFAERFKQRRIKLGVTQADVGAALAPLKIPGVGSLSQSTICRFESLTLSHNNMIALKPVLQAWLEEAE [N30P] as the variant, how does the abundance fitness read?
A: The abundance fitness was -0.267 ± 0.058.

Q: With RELEAFAERFKQRRIKLGVTQADVGAALAFLKIPGVGSLSQSTICRFESLTLSHNNMIALKPVLQAWLEEAE [N30F] as the variant, how does the abundance fitness read?
A: The abundance fitness was -0.276 ± 0.1.
